Data from patent publication US20220251159A1.
No end group written: not given here. *: point of attachment. Myristoyl = CCCCCCCCCCCCCC(=O)*

What was measured:
Full length p53 = test: MST; FIG. 3B; settings: chains peptide; modification not given
[1] = target: two different p53 missense mutations (A161T and R175H) expressed in U266 and OPM2 multiple myeloma cells; test: cell-based or functional assay

RRHSTPHPD [pCAP250]
Kd (Full length p53): 30 µM

Myristoyl-RRHSTPHPD [pCAP 250 (SEQ ID NO: 1)]
IC50, cell viability (CellTiter-Glo, 72 h) of multiple myeloma cell lines [1]: 1.5 to 3 µM
